Results from article PMC5771124, “Characterization of a functional insertion sequence ISSau2 from Staphylococcus aureus”.

Target: ISSau2 transposase OrfAB (Staphylococcus aureus E48 (ISSau2 in …, UniProt UPI0010FBCD58 1-522, F226L))
Assay: EMSA; Mg2+, excess poly(dI-dC), 0.42 ug OrfAB
Details: protein: recombinant; tags: N-terminal 6-His (pET32a vector fusion); label: biotin end label

B1: IRL42 (dsDNA)
DNA 1: TGAAATGCTCCCTTCAAAGTAGACATTGAAAAAATGAAAACT
DNA 2: AGTTTTCATTTTTTCAATGTCTACTTTGAAGGGAGCATTTCA
- binding result: binds
